This is an account of results in the supplement of paper PMC5998384.

Data set [1] relates to HeLa Kyoto. In words: solubility in G1/S (NP-40 vs SDS abundance) (log2 ratio); higher = more soluble. Conditions: cell cycle stage: G1/S.
For data set [2], the system named is HeLa Kyoto. The data set can be described thus: melting temperature (median over replicates), in situ; higher = more thermally stable.
Data set [3] deals with HeLa Kyoto. The data set can be described thus: thermal stability score vs G1/S (z-score of summed log2 fold changes over temperatures); higher = more thermally stable than in G1/S.
For data set [4], the system named is HeLa Kyoto. The data set can be described thus: solubility change mitosis vs G1/S (difference of NP-40 vs SDS log2 ratios) (log2 ratio difference); higher = more soluble in mitosis.
The mark [5] stands for this setting: cell cycle stage: early G1 (4.5 h after nocodazole release).
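Wherever melting temperature (median over replicates), in situ is given: HeLa Kyoto cells synchronized by double thymidine or nocodazole block, proteins quantified by TMT10plex mass spectrometry, three independent biological replicates.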
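Wherever solubility change mitosis vs G1/S (difference of NP-40 vs SDS log2 ratios) is given: synchronized HeLa Kyoto cells (double thymidine block for G1/S, nocodazole release for mitosis), protein amounts in NP-40 versus SDS lysates quantified by mass spectrometry, three biological replicates.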
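Wherever solubility in G1/S (NP-40 vs SDS abundance) is given: HeLa Kyoto cells arrested at G1/S by double thymidine block, proteins quantified by TMT10plex mass spectrometry in mild NP-40 versus SDS extracts, three biological replicates.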
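Wherever thermal stability score vs G1/S (z-score of summed log2 fold changes over temperatures) is given: synchronized HeLa Kyoto cells, proteins quantified by TMT10plex mass spectrometry, three biological replicates, mitosis taken 0.5 h after nocodazole release, G1/S directly after double thymidine block.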

With “MEGSLEREAPAGALAAVLKHSSTLPPESTQVRGYDFNRGVNYRALLEAFGTTGFQATNFGRAVQQVNAMIEKKLEPLSQDEDQHADLTQSRRPLTSCTIFLGYTSNLISSGIRETIRYLVQHNMVDVLVTTAGGVEEDLIKCLAPTYLGEFSLRGKELRENGINRIGNLLVPNENYCKFEDWLMPILDQMVMEQNTEGVKWTPSKMIARLGKEINNPESVYYWAQKNHIPVFSPALTDGSLGDMIFFHSYKNPGLVLDIVEDLRLINTQAIFAKCTGMIILGGGVVKHHIANANLMRNGADYAVYINTAQEFDGSDSGARPDEAVSWGKIRVDAQPVKVYADASLVFPLLVAETFAQKMDAFMHEKNED [DHPS]”, the “solubility in G1/S (log2)” value in data set [1] came to 0.164. In addition, the values for the melting temperature in data set [2] (cell cycle stage: G1/S) and in data set [2] (cell cycle stage: mitosis) were 56.2 °C and 56.8 °C, respectively. Also, the thermal stability score in data set [3] (setting [5]) was -0.0223; in data set [3] (cell cycle stage: mitosis), -1.85. In addition, the “solubility change mitosis (log2)” value in data set [4] is -0.0341.

On to “MEKFGMNFGGGPSKKDLLETIETQKKQLLQYQARLKDVVRAYKSLLKEKEALEASIKVLSVSHEADVGLAGVQLPGLTFPDSVDDRCSTHSEDSTGTATSLDTAASLTSTKGEFGVEDDRPARGPPPPKSEEASWSESGVSSSSGDGPFAGGEVDKRLHQLKTQLATLTSSLATVTQEKSRMEASYLADKKKMKQDLEDASNKAEEERARLEGELKGLQEQIAETKARLITQQHDRAQEQSDHALMLRELQKLLQEERTQRQDLELRLEETREALAGRAYAAEQMEGFELQTKQLTREVEELKSELQAIRDEKNQPDPRLQELQEEAARLKSHFQAQLQQEMRKTALAEDQLRQQSQVEEQRVAALENQISEVSELLGTYEKAKQKDQLAIQKLKERILQLDLENKTLALAASSRSPLDSHGEESSLDVNVLKDKMEKLKRLLQVAARKSQVTLDVEKLCDLEIMPSSEAADGEKATALYYQQELKQLKEEFERYKMRAQVVLKSKNTKDGNLGKELEAAQEQLAELKEKYISLRLSCEELEHQHQQEADDWKQELARLQQLHRQELERCQLDFRDRTLKLEEELHKQRDRALAVLTEKDLELEQLRSVALASGLPGRRSPVGGGGPGDPADTSSSDSLTQALQLAAANEPTFFLYAEQLARKEVEITSLRKQKHRLEVEVHQLQDRLLEEGERHREEVAALQSHIEKNIRDQSREGANLEYLKNIIYRFLTLPDSLGRQQTLTAILTILHFSPEEKQVIMRLPTSASWWPSGKR [GCC1]”, for which the “solubility in G1/S (log2)” value in data set [1] is 0.527. Also, the melting temperature came out at 48.7 °C in data set [2] (cell cycle stage: G1/S) and 51.5 °C in data set [2] (cell cycle stage: mitosis). Moreover, the figures for the thermal stability score in data set [3] (setting [5]) and in data set [3] (cell cycle stage: mitosis) were -0.43 and 0.117, respectively. The “solubility change mitosis (log2)” value in data set [4] was -0.114.

As to “MEKILQMAEGIDIGEMPSYDLVLSKPSKGQKRHLSTCDGQNPPKKQAGSKFHARPRFEPVHFVASSSKDERQEDPYGPQTKEVNEQTHFASMPRDIYQDYTQDSFSIQDGNSQYCDSSGFILTKDQPVTANMYFDSGNPAPSTTSQQANSQSTPEPSPSQTFPESVVAEKQYFIEKLTATIWKNLSNPEMTSGSDKINYTYMLTRCIQACKTNPEYIYAPLKEIPPADIPKNKKLLTDGYACEVRCQNIYLTTGYAGSKNGSRDRATELAVKLLQKRIEVRVVRRKFKHTFGEDLVVCQIGMSSYEFPPALKPPEDLVVLGKDASGQPIFNASAKHWTNFVITENANDAIGILNNSASFNKMSIEYKYEMMPNRTWRCRVFLQDHCLAEGYGTKKTSKHAAADEALKILQKTQPTYPSVKSSQCHTGSSPRGSGKKKDIKDLVVYENSSNPVCTLNDTAQFNRMTVEYVYERMTGLRWKCKVILESEVIAEAVGVKKTVKYEAAGEAVKTLKKTQPTVINNLKKGAVEDVISRNEIQGRSAEEAYKQQIKEDNIGNQLLRKMGWTGGGLGKSGEGIREPISVKEQHKREGLGLDVERVNKIAKRDIEQIIRNYARSESHTDLTFSRELTNDERKQIHQIAQKYGLKSKSHGVGHDRYLVVGRKRRKEDLLDQLKQEGQVGHYELVMPQAN [NKRF]”, the “solubility in G1/S (log2)” value in data set [1] was -0.517. In addition, the melting temperature in data set [2] (cell cycle stage: G1/S) was found to be 44.4 °C; in data set [2] (cell cycle stage: mitosis), 48 °C. Further, the thermal stability score was 3.45 in data set [3] (setting [5]) and 6.93 in data set [3] (cell cycle stage: mitosis). The “solubility change mitosis (log2)” value in data set [4] worked out at 0.226.

For “MEKLHQCYWKSGEPQSDDIEASRMKRAAAKHLIERYYHQLTEGCGNEACTNEFCASCPTFLRMDNNAAAIKALELYKINAKLCDPHPSKKGASSAYLENSKGAPNNSCSEIKMNKKGARIDFKDVTYLTEEKVYEILELCREREDYSPLIRVIGRVFSSAEALVQSFRKVKQHTKEELKSLQAKDEDKDEDEKEKAACSAAAMEEDSEASSSRIGDSSQGDNNLQKLGPDDVSVDIDAIRRVYTRLLSNEKIETAFLNALVYLSPNVECDLTYHNVYSRDPNYLNLFIIVMENRNLHSPEYLEMALPLFCKAMSKLPLAAQGKLIRLWSKYNADQIRRMMETFQQLITYKVISNEFNSRNLVNDDDAIVAASKCLKMVYYANVVGGEVDTNHNEEDDEEPIPESSELTLQELLGEERRNKKGPRVDPLETELGVKTLDCRKPLIPFEEFINEPLNEVLEMDKDYTFFKVETENKFSFMTCPFILNAVTKNLGLYYDNRIRMYSERRITVLYSLVQGQQLNPYLRLKVRRDHIIDDALVRLEMIAMENPADLKKQLYVEFEGEQGVDEGGVSKEFFQLVVEEIFNPDIGMFTYDESTKLFWFNPSSFETEGQFTLIGIVLGLAIYNNCILDVHFPMVVYRKLMGKKGTFRDLGDSHPVLYQSLKDLLEYEGNVEDDMMITFQISQTDLFGNPMMYDLKENGDKIPITNENRKEFVNLYSDYILNKSVEKQFKAFRRGFHMVTNESPLKYLFRPEEIELLICGSRNLDFQALEETTEYDGGYTRDSVLIREFWEIVHSFTDEQKRLFLQFTTGTDRAPVGGLGKLKMIIAKNGPDTERLPTSHTCFNVLLLPEYSSKEKLKERLLKAITYAKGFGML [UBE3A]”, the “solubility in G1/S (log2)” value in data set [1] was -0.0632. The melting temperature in data set [2] (cell cycle stage: G1/S) was 52.8 °C; in data set [2] (cell cycle stage: mitosis) it was 52 °C. The thermal stability score was -0.231 in data set [3] (setting [5]) and -0.936 in data set [3] (cell cycle stage: mitosis). The “solubility change mitosis (log2)” value in data set [4] is -0.175.

Take “MEKTCIDALPLTMNSSEKQETVCIFGTGDFGRSLGLKMLQCGYSVVFGSRNPQKTTLLPSGAEVLSYSEAAKKSGIIIIAIHREHYDFLTELTEVLNGKILVDISNNLKINQYPESNAEYLAHLVPGAHVVKAFNTISAWALQSGALDASRQVFVCGNDSKAKQRVMDIVRNLGLTPMDQGSLMAAKEIEKYPLQLFPMWRFPFYLSAVLCVFLFFYCVIRDVIYPYVYEKKDNTFRMAISIPNRIFPITALTLLALVYLPGVIAAILQLYRGTKYRRFPDWLDHWMLCRKQLGLVALGFAFLHVLYTLVIPIRYYVRWRLGNLTVTQAILKKENPFSTSSAWLSDSYVALGILGFFLFVLLGITSLPSVSNAVNWREFRFVQSKLGYLTLILCTAHTLVYGGKRFLSPSNLRWYLPAAYVLGLIIPCTVLVIKFVLIMPCVDNTLTRIRQGWERNSKH [STEAP4]”: the “solubility in G1/S (log2)” value in data set [1] was -0.0287. In addition, the melting temperature in data set [2] (cell cycle stage: G1/S) stood at 60.3 °C; in data set [2] (cell cycle stage: mitosis), 57.7 °C. Moreover, the thermal stability score was -2.95 in data set [3] (setting [5]) and -3.54 in data set [3] (cell cycle stage: mitosis). The “solubility change mitosis (log2)” value in data set [4] was -0.115.

For “MELGSCLEGGREAAEEEGEPEVKKRRLLCVEFASVASCDAAVAQCFLAENDWEMERALNSYFEPPVEESALERRPETISEPKTYVDLTNEETTDSTTSKISPSEDTQQENGSMFSLITWNIDGLDLNNLSERARGVCSYLALYSPDVIFLQEVIPPYYSYLKKRSSNYEIITGHEEGYFTAIMLKKSRVKLKSQEIIPFPSTKMMRNLLCVHVNVSGNELCLMTSHLESTRGHAAERMNQLKMVLKKMQEAPESATVIFAGDTNLRDREVTRCGGLPNNIVDVWEFLGKPKHCQYTWDTQMNSNLGITAACKLRFDRIFFRAAAEEGHIIPRSLDLLGLEKLDCGRFPSDHWGLLCNLDIIL [TDP2]”, in data set [1], the “solubility in G1/S (log2)” value stood at 0.116. Further, the melting temperature is 49.7 °C in data set [2] (cell cycle stage: G1/S) and 51.7 °C in data set [2] (cell cycle stage: mitosis). The thermal stability score in data set [3] (setting [5]) was -0.731; in data set [3] (cell cycle stage: mitosis), -0.039. In addition, the “solubility change mitosis (log2)” value in data set [4] is -0.193.
